Laboratory results from the Immune Epitope Database (IEDB).
pIC50, pKd: −log10 of the molar value. Values belong to the sequence of their own block, whether it stands above or below them.

What was measured:
[1] = target: HLA-A*01:01; assay: IEDB peptide-MHC binding, purified MHC/direct/fluorescence; filed as Kd, often an IC50 or EC50 that approximates it; ≥ and ≤ were set here for values at or beyond the usual limits of such assays; settings: source organism: Haemophilus influenzae
[2] = target: HLA-A*02:01; assay: as above; settings: source organism: Haemophilus influenzae
[3] = target: HLA-A*69:01; assay: as above; settings: source organism: Haemophilus influenzae
[4] = target: HLA-B*15:01; assay: as above; settings: source organism: Haemophilus influenzae
[5] = target: HLA-A*02:03; assay: IEDB peptide-MHC binding, purified MHC/competitive/fluorescence; filed as Kd, often an IC50 or EC50 that approximates it; ≥ and ≤ were set here for values at or beyond the usual limits of such assays
[6] = target: HLA-A*02:06; assay: as above
[7] = target: HLA-A*02:11; assay: as above
[8] = target: HLA-C*03:03; assay: IEDB peptide-MHC binding, purified MHC/direct/fluorescence; filed as Kd, often an IC50 or EC50 that approximates it; ≥ and ≤ were set here for values at or beyond the usual limits of such assays
[9] = target: HLA-B*15:01; assay: IEDB peptide-MHC binding, purified MHC/competitive/fluorescence; filed as Kd, often an IC50 or EC50 that approximates it; ≥ and ≤ were set here for values at or beyond the usual limits of such assays
[10] = target: HLA-A*23:01; assay: as above
[11] = target: HLA-B*15:17; assay: IEDB peptide-MHC binding, purified MHC/direct/fluorescence; filed as Kd, often an IC50 or EC50 that approximates it; ≥ and ≤ were set here for values at or beyond the usual limits of such assays; settings: source organism: Campylobacter jejuni RM1221
[12] = target: HLA-B*57:01; assay: as above; settings: source organism: Campylobacter jejuni RM1221
[13] = target: HLA-B*58:01; assay: as above; settings: source organism: Campylobacter jejuni RM1221
[14] = target: HLA-C*15:02; assay: as above
[15] = target: HLA-B*53:01; assay: IEDB peptide-MHC binding, purified MHC/competitive/fluorescence; ≥ and ≤ were set here for values at or beyond the usual limits of such assays; settings: source organism: human gammaherpesvirus 4
[16] = target: HLA-C*12:03; assay: IEDB peptide-MHC binding, purified MHC/direct/fluorescence; filed as Kd, often an IC50 or EC50 that approximates it; ≥ and ≤ were set here for values at or beyond the usual limits of such assays
[17] = target: HLA-B*07:02; assay: as above; settings: source organism: Mycobacterium tuberculosis variant bovis BCG str. Pasteur 1173P2
[18] = target: HLA-B*35:01; assay: IEDB peptide-MHC binding, purified MHC/competitive/fluorescence; filed as Kd, often an IC50 or EC50 that approximates it; ≥ and ≤ were set here for values at or beyond the usual limits of such assays; settings: source organism: Mycobacterium tuberculosis C
[19] = target: HLA-B*51:01; assay: as above
[20] = target: HLA-C*05:01; assay: IEDB peptide-MHC binding, purified MHC/direct/fluorescence; filed as Kd, often an IC50 or EC50 that approximates it; ≥ and ≤ were set here for values at or beyond the usual limits of such assays
[21] = target: HLA-A*02:01; assay: IEDB peptide-MHC binding, purified MHC/competitive/fluorescence; filed as Kd, often an IC50 or EC50 that approximates it; ≥ and ≤ were set here for values at or beyond the usual limits of such assays
[22] = target: HLA-A*02:12; assay: as above; settings: source organism: Escherichia coli 536
[23] = target: HLA-A*02:16; assay: as above; settings: source organism: Escherichia coli 536
[24] = target: HLA-A*02:19; assay: as above; settings: source organism: Escherichia coli 536
[25] = target: HLA-A*03:01; assay: as above; settings: source organism: Escherichia coli 536
[26] = target: HLA-A*24:03; assay: as above; settings: source organism: Escherichia coli 536
[27] = target: HLA-A*26:01; assay: as above; settings: source organism: Escherichia coli 536
[28] = target: HLA-A*29:02; assay: as above; settings: source organism: Escherichia coli 536
[29] = target: HLA-A*68:02; assay: as above; settings: source organism: Escherichia coli 536
[30] = target: HLA-A*69:01; assay: as above; settings: source organism: Escherichia coli 536
[31] = target: HLA-B*15:17; assay: as above; settings: source organism: Escherichia coli 536
[32] = target: HLA-B*18:01; assay: as above; settings: source organism: Escherichia coli 536
[33] = target: HLA-B*27:03; assay: as above; settings: source organism: Escherichia coli 536
[34] = target: HLA-B*39:01; assay: as above; settings: source organism: Escherichia coli 536
[35] = target: HLA-B*46:01; assay: as above; settings: source organism: Escherichia coli 536
[36] = target: HLA-B*57:01; assay: as above; settings: source organism: Escherichia coli 536
[37] = target: HLA-B*15:42; assay: as above
[38] = target: HLA-B*45:06; assay: as above
[39] = target: HLA-B*83:01; assay: as above
[40] = target: HLA-C*04:01; assay: as above
[41] = target: HLA-A*01:01; assay: as above; settings: source organism: Escherichia coli
[42] = target: HLA-B*58:01; assay: as above; settings: source organism: Escherichia coli
[43] = source organism: Haemophilus influenzae R3021
[44] = source organism: Salmonella enterica subsp. enterica serovar Typhi str. CT18
[45] = source organism: Human herpesvirus 4 strain B95-8
[46] = source organism: Mycobacterium tuberculosis C
[47] = source organism: Haemophilus influenzae R2846
[48] = source organism: Yersinia pestis Nepal516
[49] = source organism: Escherichia coli O157:H7 str. EDL933
[50] = source organism: Escherichia coli 536
[51] = source organism: Yellow fever virus 1899/81

pKd [1]: 5.68
pKd [2]: 7.15
pKd [3]: 5.58
pKd [4]: ≤ 4.17
pKd [5, 43]: 8.36
pKd [6, 43]: ≥ 10.00
pKd [7, 43]: ≥ 10.00
Sequence: MLEEMQSAV

Sequence: MMQTYTGAL
pKd [8, 44]: 6.92
pKd [9, 44]: 7.19

Sequence: VMLQIPFYK
pKd ([10]; source organism: Rickettsia bellii RML369-C): 6.51

Sequence: HSNSEYLMF
pKd [11]: 8.96
pKd [12]: 6.87
pKd [13]: 8.26
pKd ([14]; source organism: Campylobacter jejuni): 7.03

Sequence: MTAASYARY
pIC50 [15]: ≤ 4.70

Sequence: KAVETPILV
pKd [16, 45]: ≥ 9.00
pKd [14, 45]: 7.29

Sequence: WPVLGSEVL
pKd [17]: 6.65
pKd [18]: ≥ 10.00
pKd [19, 46]: ≤ 4.70

pKd [20, 47]: 7.80
pKd [14, 47]: ≤ 4.70
Sequence: TSDEIYMTF

Sequence: RQPLNIQAI
pKd [21, 48]: 6.52
pKd [6, 48]: 7.23

pKd [8, 49]: 7.22
pKd [20, 49]: 7.43
pKd [10, 49]: ≥ 9.00
Sequence: YVLNGYTEF

pKd [21, 50]: ≤ 4.70
pKd [5, 50]: ≤ 4.70
pKd [7, 50]: ≤ 4.70
pKd [22]: ≤ 4.70
pKd [23]: ≤ 4.70
pKd [24]: ≤ 4.70
pKd [25]: ≤ 4.70
pKd [10, 50]: ≤ 4.70
pKd [26]: ≤ 4.70
pKd [27]: ≤ 4.70
pKd [28]: ≤ 4.70
pKd [29]: ≤ 4.70
pKd [30]: ≤ 4.70
pKd [9, 50]: ≤ 4.70
pKd [31]: ≤ 4.70
pKd [32]: ≤ 4.70
pKd [33]: ≤ 4.70
pKd [34]: ≤ 4.70
pKd [35]: ≤ 4.70
pKd [19, 50]: ≤ 4.70
pKd [36]: 6.06
Sequence: QTDNDIWFW

Sequence: REMHHLVEF
pKd [37, 51]: ≤ 5.30
pKd [38, 51]: ≤ 5.30
pKd [39, 51]: ≤ 5.30
pKd [40, 51]: ≤ 5.30

Sequence: RLYQYSFAK
pKd [37, 46]: ≤ 5.30
pKd [38, 46]: ≤ 5.30
pKd [39, 46]: ≤ 5.30
pKd [40, 46]: ≤ 5.30

Sequence: MLNRYKLIY
pIC50 [15]: 6.77

pKd ([16]; source organism: Escherichia coli B171): 8.05
pKd [41]: 7.92
pKd [42]: 5.86
Sequence: YSALRPHEY

Sequence: HPVLVTATL
pIC50 [15]: 5.41
